What all share (test): ITC
Assay [1] deals with NRD^510-600 T538A, not phosphorylated (NRD^T538A) (human) (UniProt P10244).
For assay [2], the target named is B-Myb negative regulatory domain, C-terminal half, amino acids 510-600 (NRD^510-600) (human) (UniProt P10244).
Assay [3] deals with NRD^510-600 S577A, not phosphorylated (NRD^S577A) (human) (UniProt P10244).
Sequence of NRD^510-600 S577A, not phosphorylated (NRD^S577A) (human) (P10244 510-600 S577A): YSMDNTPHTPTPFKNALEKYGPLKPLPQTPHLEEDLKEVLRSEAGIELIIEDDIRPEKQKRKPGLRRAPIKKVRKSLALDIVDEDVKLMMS

Sequence of B-Myb negative regulatory domain, C-terminal half, amino acids 510-600 (NRD^510-600) (human) (P10244 510-600): as the sequence (P10244 510-600 S577A) above, with A68S counted along it
Sequence of NRD^510-600 T538A, not phosphorylated (NRD^T538A) (human) (P10244 510-600 T538A): as the sequence (P10244 510-600 S577A) above, with T29A, A68S counted along it

As to “B-Myb DNA binding domain (B-Myb^34-183) (from UniProt P10244-1 34-183) (domain or fragment)”, the dissociation constant (Kd) in assay [1] was found to be 6.5 µM; in assay [2], 4.9 µM; in assay [3], 3.2 µM.

(Values after publication doi:10.1101/2022.06.13.495963.)
